Experimental data reported in patent US10765739B2, “Use of MIF and MIF pathway agonists” (Yale University, priority 2006, dated 2020).

What was measured:
[1] = test system: rat heart left ventricular papillary muscles; test: 2-deoxy-[1-3H]glucose uptake in isolated heart papillary muscles; assay type: cell-based; conditions: normoxic heart muscles, 0-800 ng/ml for 60 minutes
Protocol: (§1) Briefly, rat heart anterior and posterior left ventricular papillary muscles (3-5 mg) were equilibrated in oxygenated Dulbecco's phosphate-buffered saline (PBS) containing 1 mM MgCl2 […], glucose, and 1% BSA. Unless otherwise noted, 100% oxygen flowed continuously through sealed muscle incubation containers while muscles were kept in an oscillating water bath at 37° C., and experiments began after a 15 minute equilibration period in these conditions. During incubations designed to examine the effects of hypoxia, muscles were transferred to incubation containers gassed with N2 for 30 minutes. In incubations with rMIF (0-800 ng/ml), anti-MIF blocking antibody (100 μg/ml), and/or non-immune rabbit IgG (100 μg/ml); Sigma, USA), these compounds were added for 30-120 minutes. At the end of experiments, muscles were freeze clamped and stored in liquid nitrogen until further analysis, unless otherwise specified.
To further support MIF's role in modulating the AMPK pathway, we added recombinant human MIF (rMIF) to intact normoxic heart muscles. Papillary muscles were isolated as above. […]

AMPK [2] = test: Hypoxic AMPK phosphorylation in human dermal fibroblasts by MIF promoter genotype; assay type: cell-based; conditions: 10 ng/ml during 9 hours of hypoxia
Protocol: (§2) Immunoblots were performed according to standard methods known in the art. See, for example, Li et al., Am. J. Physiol Endocrinol Metab 287, E384 (2004) and Baron et al., Circ Res (Jan. 13, 2005). Heart homogenate proteins were combined with Laemmli sample buffer prior to resolution by SDS-PAGE, transferred onto polyvinylidene difluoride membranes, immunoblotted, detected with enhanced chemiluminesence, and quantified by densitometry.
To isolate human fibroblasts, human foreskin samples were obtained from the Yale Human Cell Resource Center (Department of Dermatology) in accordance with the Yale Human Investigations Committee. Fibroblasts were cultured in DMEM supplemented with 10% fetal bovine serum (FBS), penicillin (100 IU/ml) and streptomycin (100 μg/ml) at 37° C. Cells were studied at 80% confluence, and on the day prior to experiments, culture media was changed to DMEM with 1% FBS. Early passage fibroblasts were either subjected to 9 hours of hypoxia by incubation in an air-tight chamber gassed with 95% nitrogen/5% CO2 or control incubation in room air.
To confirm that relative MIF deficiency was responsible for impaired hypoxic AMPK activation in the low-expressing 5/5 genotype fibroblasts, we investigated the effect of adding human rMIF (10 ng/ml) to the culture media during hypoxic incubation.

AMPK [3] = test: AMPK Thr172 phosphorylation (immunoblot densitometry) in isolated heart papillary muscles; assay type: cell-based, rat; conditions: normoxic heart muscles
Protocol: as §1, §2

GLUT4 = test: Cell-surface GLUT4 content of papillary muscles by bio-LC-ATB-BGPA photolabel; assay type: cell-based, rat; conditions: 400 ng/ml for 60 minutes
Protocol: as §1, with “At the end of experiments, muscles were freeze clamped and stored in liquid nitrogen until further analysis, unless otherwise specified.” left out
Glucose uptake is primarily mediated by the glucose transporter, GLUT4, and AMPK-stimulation of glucose transport is due to the translocation of GLUT4 vesicles to the cell surface, where GLUT4 is physiologically active (Sun et al., Circulation 89, 793 (1994); Young et al., Circulation 95, 415 (1997)). Thus, we assessed the cell-surface GLUT4 content of heart muscles after incubation with rMIF, utilizing a cell-membrane impermeant biotinylated glucose transporter photolabel (bio-LC-ATB-BGPA). […]

B1: rMIF: recombinant human MIF (macrophage migration inhibitory factor), the preferred MIF agonist (protein, UniProt P14174 2-115, looked up)
Macrophage migration …: PMFIVNTNVPRASVPDGFLSELTQQLAQATGKPPQYIAVHVVPDQLMAFGGSSEPCALCSLHSIGKIGGAQNRSYSKLLCGLLAERLRISPDRVYINYYDMNAANVGWNNSTFA
glucose uptake [1]: increase | hypoxic AMPK signaling (AMPK phosphorylation) (AMPK [2]; 5/5 genotype fibroblasts): rescued | AMPK phosphorylation (AMPK [2]; hypoxic non-5/5 genotype fibroblasts): no additional effect | AMPK Thr172 phosphorylation (AMPK [3]; 0-400 ng/ml, 0-120 minutes): time- and dose-dependent increase | maximal AMPK activation (AMPK Thr172 phosphorylation) (AMPK [3]; 400 ng/ml incubated for 60 minutes): 1.5-2.0 fold increase | cell-surface GLUT4 (GLUT4): increased
